{"source": "paper PMC9808565", "target": "human ACE2 protein (hACE2), recombinant, His-tagged, Met1-Ser740 (human) (UniProt Q9BYF1)", "sequence (Q9BYF1 18-740)": "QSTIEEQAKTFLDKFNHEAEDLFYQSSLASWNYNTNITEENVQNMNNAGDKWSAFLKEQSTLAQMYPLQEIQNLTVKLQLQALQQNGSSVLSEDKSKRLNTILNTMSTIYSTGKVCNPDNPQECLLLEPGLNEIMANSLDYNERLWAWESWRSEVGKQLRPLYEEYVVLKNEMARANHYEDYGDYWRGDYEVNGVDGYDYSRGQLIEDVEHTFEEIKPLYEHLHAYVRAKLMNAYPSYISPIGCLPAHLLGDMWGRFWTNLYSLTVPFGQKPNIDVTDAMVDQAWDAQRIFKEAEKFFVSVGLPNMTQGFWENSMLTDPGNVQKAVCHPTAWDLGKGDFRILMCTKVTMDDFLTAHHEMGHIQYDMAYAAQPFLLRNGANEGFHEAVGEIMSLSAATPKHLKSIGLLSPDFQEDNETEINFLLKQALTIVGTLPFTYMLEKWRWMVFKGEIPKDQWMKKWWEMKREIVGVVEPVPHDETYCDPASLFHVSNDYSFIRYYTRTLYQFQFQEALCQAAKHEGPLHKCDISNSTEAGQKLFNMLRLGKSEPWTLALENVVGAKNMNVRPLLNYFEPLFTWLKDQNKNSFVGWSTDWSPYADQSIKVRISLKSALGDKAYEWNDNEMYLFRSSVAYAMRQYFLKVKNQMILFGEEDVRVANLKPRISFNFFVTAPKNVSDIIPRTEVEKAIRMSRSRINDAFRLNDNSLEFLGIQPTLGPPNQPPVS", "test": "ITC", "data": [{"substance": "SARS-CoV-1 spike RBD (RBD^CoV1), Arg306-Phe527, His-tagged (domain or fragment)", "values": [{"measurement": "Kd", "value": 146, "unit": "nM"}, {"measurement": "dH", "value": -10.5, "unit": "kcal/mol"}, {"measurement": "stoichiometry N", "value": 1.03}]}]}
